Patent publication US20240124575A1 (SIMCERE ZAIMING PHARMACEUTICAL, published 2024)

B1: C33B904 hIgG1 (antibody, V domains shown)
VH: EVQLVESGGGLVQPGRSLRLSCAASGFTFDDYAMHWVRQAPGKGLEWVSGIGWSGGSIVYADSVKGRFTISRDNAKNSLYLQMNSLRAEDTALYYCAKDSPYGDFFDYWGQGTLVTVSS
VL: DIVMTQSPDSLAVSLGERATINCKSSQTVFYSSNNKNYLAWYQQKPGQPPKLLISWASTRKSGVPDRFSGSGSGTDFTLTVSSLQAEDVAVYYCQHYYSTPYTFGQGTKLEIKR
notes: intact human IgG1; variable regions from US20190382481A1; also called C33B3904; C331B904
B2: C33B904 (antibody, human IgG1, kappa, V domains shown)
VH: B1 VH
VL: B1 VL
notes: control antibody, intact human IgG1 form; variable regions from US20190382481A1; also called C33B904 hIgG1; C331B904

Experiments:
[1] = target: T1, human CD33-His (extracellular domain Asp 18-His 259) (human, UniProt P20138 18-259); experiment: competitive ELISA vs coated S006-NB146-16 3ug/mL; soluble 25ug/ml
T1 construct: range 18-259; bought protein; also called hCD33-his; human CD33 protein; not shown: His tag

[2] = target: T2, human CD33 on U937 cells (endogenous) (human, UniProt P20138 18-364); experiment: FACS, U937 cells
T2 construct: whole, on cells
Protocol: The desired cells were expanded to a logarithmic growth phase in a T-75 cell culture flask. For adherent cells CHO-K1, the culture medium was removed by pipetting, and the cells were washed twice with a PBS buffer, digested with trypsin, and washed twice with a PBS buffer again after the digestion was stopped. For suspension cells U937, the medium supernatant was discarded by direct centrifugation, and the cell pellet was washed twice with PBS, and then incubated with a buffer containing human Fc Block (purchased from BD, Cat. No. 564220) for 15 min. After the cells obtained in the last step were subjected to cell counting, the cell pellet was resuspended to 2×10⁶ cells/mL with a blocking solution [PBS+2% (w/w) BSA] and added to a 96-well FACS reaction plate at 50 μL/well. The VHH-Fc antibody (a sample to be tested) was added at 50 μL/well, and the plate was incubated on ice for 2 h. […] After the plate was centrifuged and washed 5 times with a PBS buffer, the results were assayed and analyzed by FACS (FACS Canto™, purchased from BD Biosciences), so as to obtain the mean fluorescence intensity (MFI) of cells. Then, analysis was performed by software (GraphPad Prism8), data were fitted, and EC50 values were calculated.

[3] = target: T1, human CD33-His (extracellular domain …); experiment: competitive ELISA vs coated S006-NB146-69 3ug/mL; soluble 25ug/ml
monkey CD33-His protein = target: T3, monkey CD33-His protein (monkey); experiment: ELISA on coated monkey CD33-his
T3 construct: also called monkey CD33 protein

[4] = target: T1, human CD33-His (extracellular domain …); experiment: ELISA on coated human CD33-his
Protocol: In order to assay the binding activity of VHH-Fc to human CD33 protein, a human CD33-his protein (purchased from ACROBiosystems, Cat. No. CD3-H5226) was diluted with PBS to make a final concentration of 2 μg/mL, and then added into a 96-well ELISA plate at 100 μL/well. The plate was sealed with a plastic film and incubated at 4° C. overnight, washed twice with PBS the next day, and a blocking solution [PBS+2% (w/w) BSA] was added for blocking at room temperature for 2 h. The blocking solution was discarded, and VHH-Fc antibody or negative control antibody serially diluted from 100 nM was added at 50 μL/well. After incubation at 37° C. for 2 h, the plate was washed 3 times with PBS. A secondary antibody labeled with HRP (horseradish peroxidase) (purchased from Sigma, Cat. No. A0170) was added. After incubation for 1 h at 37° C., the plate was washed 5 times with PBS. A TMB substrate was added at 50 μL/well. After incubation at room temperature for 10 min, a stop solution (1.0 N HCl) was added at 50 μL/well. The OD450 nm values were read on an ELISA plate reader (Multimode Plate Reader, EnSight, purchased from Perkin Elmer). The assay results for the binding of the VHH-Fc to hCD33-his by ELISA are shown in FIGS. 7A and 7B and Tables 11 and 12. […] The IgG control was hIgG1, and the data in the table are OD450 nm values. […]

human CD33-his protein [5] = target: T4, human CD33-his protein (human, UniProt P20138 18-259); experiment: competition ELISA, coated human CD33-his, vs Biotin-C33B904 at EC80; antibody 3.91 nM
T4 construct: range 18-259; bought protein; also called hCD33-his; recombinant human CD33-his; not shown: His tag
Protocol: The plate was sealed with a plastic film and incubated at 4° C. overnight, washed twice with PBS the next day, and a blocking solution [PBS+2% (w/w) BSA] was added for blocking at room temperature for 2 h. The blocking solution was discarded, and VHH-Fc antibody or negative control antibody serially diluted from 100 nM was added at 50 μL/well. After incubation at 37° C. for 2 h, the plate was washed 3 times with PBS. A secondary antibody labeled with HRP (horseradish peroxidase) (purchased from Sigma, Cat. No. A0170) was added. After incubation for 1 h at 37° C., the plate was washed 5 times with PBS. A TMB substrate was added at 50 μL/well. After incubation at room temperature for 10 min, a stop solution (1.0 N HCl) was added at 50 μL/well. The OD450 nm values were read on an ELISA plate reader (Multimode Plate Reader, EnSight, purchased from Perkin Elmer). The assay results for the binding of the VHH-Fc to hCD33-his by ELISA are shown in FIGS. 7A and 7B and Tables 11 and 12. […] The IgG control was hIgG1, and the data in the table are OD450 nm values.
ELISA plates were coated with 2 μg/mL human CD33-his protein according to the method in Example 5.1; the Biotin-C331B904 antibody was subjected to a gradient dilution from 15 μg/mL, and EC80 values (0.18 μg/mL) were calculated. […] OD_{450 nm} values were read using an ELISA plate reader (Insight, purchased from PerkinElmer). […]

human CD33-his protein [6] = target: T4, human CD33-his protein; experiment: competition ELISA, coated human CD33-his, vs Biotin-C33B904 at EC80; antibody 7.81 nM
Protocol: ELISA plates were coated with 2 μg/mL human CD33-his protein according to the method in Example 5.1; the Biotin-C331B904 antibody was subjected to a gradient dilution from 15 μg/mL, and EC80 values (0.18 μg/mL) were calculated. ELISA plates were coated with 2 μg/mL human CD33-his protein; starting from 40 μg/mL, the VHH antibodies to be tested were diluted in a 1:2 dilution ratio to obtain seven concentrations and added to the ELISA plates, and then Biotin-C331904 antibodies with the EC80 concentrations were added for incubation for 2 h. The plates were washed 5 times with PBS and then […] (purchased from Sigma, Cat. No. S2438) were added for incubation for 1 h, and the plates were washed 5 times. A TMB substrate was added at 50 μL/well and incubated at room temperature for 10 min, then a stop solution (1.0 M HCl) was added at 50 μL/well. OD_{450 nm} values were read using an ELISA plate reader (Insight, purchased from PerkinElmer). Then, analysis was performed by software (GraphPad Prism8), and data were fitted for curve plotting. The results are shown in FIGS. 13A-13B and Tables 28 and 29.

T1 sequence (P20138 18-259 limits assumed): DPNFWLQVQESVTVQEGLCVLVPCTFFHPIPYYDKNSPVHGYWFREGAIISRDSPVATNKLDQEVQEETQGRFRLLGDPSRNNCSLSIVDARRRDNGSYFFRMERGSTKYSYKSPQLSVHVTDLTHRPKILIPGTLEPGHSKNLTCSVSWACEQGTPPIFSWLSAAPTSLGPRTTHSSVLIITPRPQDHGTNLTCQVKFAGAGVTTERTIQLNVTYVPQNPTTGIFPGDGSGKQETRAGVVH
T4 sequence (P20138 18-259 limits assumed): as above
T2 sequence (P20138 18-364): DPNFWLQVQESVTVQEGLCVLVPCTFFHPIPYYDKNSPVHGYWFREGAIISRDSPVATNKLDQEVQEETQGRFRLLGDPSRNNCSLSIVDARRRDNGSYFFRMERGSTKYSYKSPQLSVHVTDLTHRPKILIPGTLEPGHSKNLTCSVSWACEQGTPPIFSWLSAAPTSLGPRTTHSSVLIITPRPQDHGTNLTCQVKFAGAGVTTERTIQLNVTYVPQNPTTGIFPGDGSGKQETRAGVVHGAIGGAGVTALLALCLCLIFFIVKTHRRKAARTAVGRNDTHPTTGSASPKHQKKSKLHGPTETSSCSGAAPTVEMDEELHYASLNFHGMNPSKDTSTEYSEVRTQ

Binder	inhibition rate [1]	EC50 [2]	Max MFI [2]	inhibition rate [3]	EC50 (read off the curve) (monkey CD33-His protein)	EC50 (read off the curve) [4]	OD450 (Biotin-C33B904 signal) (human CD33-his protein [5])	OD450 (Biotin-C33B904 signal) (human CD33-his protein [6])
B1	100%	8.41 nM	599 MFI	99%	~0.2 nM	~0.3 nM	–	–
B2	–	–	–	–	–	–	2.25	1.11
